Experimental data taken from patent US20230220042A1 (SHANGHAI JIAO TONG UNIVERSITY SCHOOL OF MEDICINE, published 2023).
Values belong to the molecule of their own block, whether it stands above or below them.

Tests used:
Biotin-FcγRIIB (human) [1] = target: Biotin-FcγRIIB (human) (UniProt P31994); assay: magnetic sorting on biotin-FcγRIIB with unlabelled activating FcγRs, NGS; LibraryMix #3
Biotin-FcγRIIB (human) [2] = target: Biotin-FcγRIIB (human) (UniProt P31994); assay: magnetic sorting on biotin-FcγRIIB with unlabelled activating FcγRs, NGS; Library4
Biotin-FcγRIIB (human) [3] = target: Biotin-FcγRIIB (human) (UniProt P31994); assay: magnetic sorting on biotin-FcγRIIB with unlabelled activating FcγRs, NGS; LibraryMix #4
Biotin-FcγRIIB (human) [4] = target: Biotin-FcγRIIB (human) (UniProt P31994); assay: magnetic sorting on biotin-FcγRIIB with unlabelled activating FcγRs, NGS; Library2
Biotin-FcγRIIB [5] = target: T1, Biotin-FcγRIIB (human, UniProt P31994 43-217, limits assumed, biotin-labelled); assay: FACS sorting of displayed Fc library on biotin-FcγRIIB, NGS
T1 construct: Bought, biotin-labelled; used at 1 µg/ml for staining and sorting; also called human FcγRIIB; CD32b
T1 sequence (looked up): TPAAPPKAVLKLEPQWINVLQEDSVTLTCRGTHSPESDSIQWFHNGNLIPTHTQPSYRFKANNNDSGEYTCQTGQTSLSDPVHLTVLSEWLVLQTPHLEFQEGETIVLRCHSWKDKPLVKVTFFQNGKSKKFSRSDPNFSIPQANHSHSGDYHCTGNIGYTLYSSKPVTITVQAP

Biotin-FcγRIIB [6] = target: T1, Biotin-FcγRIIB; assay: FACS sorting of displayed Fc library on biotin-FcγRIIB, NGS; reference P271C
Biotin-FcγRIIB [7] = target: T2, Biotin-FcγRIIB (human, UniProt P31994 43-217, limits assumed, biotin label); assay: NGS of 3T3 display library IgG2_C02 flow-sorted for FcγRIIB binding
T2 construct: Soluble labelled protein used to stain and sort the display cells; also called human FcγRIIB; CD32b
T2 sequence (looked up): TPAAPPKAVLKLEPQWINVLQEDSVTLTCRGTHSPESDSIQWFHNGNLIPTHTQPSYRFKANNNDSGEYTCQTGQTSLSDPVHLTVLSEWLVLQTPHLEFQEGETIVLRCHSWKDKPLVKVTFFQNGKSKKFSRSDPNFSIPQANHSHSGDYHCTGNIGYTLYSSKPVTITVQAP
Description: Then flow cytometry is used for sorting the cells with high affinity to FcγRIIB for two to three rounds. […] IgG2_C01 is a combined mutation (Type I) library having at most 1 mutation in each of the four regions of P233-V240, V266-P271, S298-T299, and G327-I332; IgG2_C02 is a cell library made by combining the combined mutation (Type II) libraries of four regions of P233-V240, V266-P271, S298-T299 and G327-I332 together and transferring it into 3T3 cells.

Biotin-FcγRIIB [8] = target: T1, Biotin-FcγRIIB; assay: FACS sorting of displayed Fc library on biotin-FcγRIIB, NGS; reference S267E

Molecule: human IgG2 anti-mouse CD40 surface displayed antibody (wild-type IgG2 Fc)
Enrichment factor (percentage after sorting/percentage before sorting) (Biotin-FcγRIIB (human) [1]): 1.13 | Percentage after sorting/unbinding percentage (Biotin-FcγRIIB (human) [1]): 1.06 | Percentage before sorting/unbinding percentage (Biotin-FcγRIIB (human) [1]): 0.94 | Enrichment factor (percentage after sorting/percentage before sorting) (Biotin-FcγRIIB (human) [2]): 0.88 | Percentage after sorting/unbinding percentage (Biotin-FcγRIIB (human) [2]): 0.85 | Percentage before sorting/unbinding percentage (Biotin-FcγRIIB (human) [2]): 0.97 | Enrichment factor (percentage after sorting/percentage before sorting) (Biotin-FcγRIIB (human) [3]): 0.94 | Percentage after sorting/unbinding percentage (Biotin-FcγRIIB (human) [3]): 0.95 | Percentage before sorting/unbinding percentage (Biotin-FcγRIIB (human) [3]): 1.01 | Enrichment factor (percentage after sorting/percentage before sorting) (Biotin-FcγRIIB (human) [4]): 0.83 | Percentage after sorting/unbinding percentage (Biotin-FcγRIIB (human) [4]): 0.58 | Percentage before sorting/unbinding percentage (Biotin-FcγRIIB (human) [4]): 0.7

B1: human IgG2 anti-mouse CD40 surface displayed antibody, Fc mutant S267A/P271C (antibody, name in EU numbering)
light chain (with the P2A rest): DTVLTQSPALAVSPGERVTISCRASDSVSTLMHWYQQKPGQQPKLLIYLASHLESGVPARFSGSGSGTDFTLTIDPVEADDTATYYCQQSWNDPWTFGGGTKLELKRTVAAPSVFIFPPSDEQLKSGTASVVCLLNNFYPREAKVQWKVDNALQSGNSQESVTEQDSKDSTYSLSSTLTLSKADYEKHKVYACEVTHQGLSSPVTKSFNRGECGSGATNFSLLKQAGDVEENPG
heavy chain: EVQLVESDGGLVQPGRSLKLPCAASGFTFSDYYMAWVRQAPTKGLEWVASISYDGSSTYYRDSVKGRFTISRDNAKSTLYLQMDSLRSEDTATYYCGRHSSYFDYWGQGVMVTVSSASTKGPSVFPLAPCSRSTSESTAALGCLVKDYFPEPVTVSWNSGALTSGVHTFPAVLQSSGLYSLSSVVTVPSSNFGTQTYTCNVDHKPSNTKVDKTVERKCCVECPPCPAPPVAGPSVFLFPPKPKDTLMISRTPEVTCVVVDVAHEDCEVQFNWYVDGVEVHNAKTKPREEQFNSTFRVVSVLTVVHQDWLNGKEYKCKVSNKGLPAPIEKTISKTKGQPREPQVYTLPPSREEMTKNQVSLTCLVKGFYPSDIAVEWESNGQPENNYKTTPPMLDSDGSFFLYSKLTVDKSRWQQGNVFSCSVMHEALHNHYTQKSLSLSPGKLEPPPSTVSNMATVAVLVVLGAAIVTGAVVAFVMKMRRRNTGGKGGDYALAPGSQTSDLSLPDCKVMVHDPHSLA
notes: as m1; positions are Eu numbers; copies: 2 + 2
Enrichment factor (after/before sorting) (Biotin-FcγRIIB [5]): 37.4 | Increased factor a (enrichment factor/wild-type enrichment factor) (Biotin-FcγRIIB [5]): 65.1 | Increased factor 2 c Site 2 (combined/point mutation) (Biotin-FcγRIIB [6]): 2.2

B3: human IgG2 anti-mouse CD40 surface displayed antibody, Fc mutant S267E/P271C (antibody, name in EU numbering)
light chain (with the P2A rest): DTVLTQSPALAVSPGERVTISCRASDSVSTLMHWYQQKPGQQPKLLIYLASHLESGVPARFSGSGSGTDFTLTIDPVEADDTATYYCQQSWNDPWTFGGGTKLELKRTVAAPSVFIFPPSDEQLKSGTASVVCLLNNFYPREAKVQWKVDNALQSGNSQESVTEQDSKDSTYSLSSTLTLSKADYEKHKVYACEVTHQGLSSPVTKSFNRGECGSGATNFSLLKQAGDVEENPG
heavy chain: EVQLVESDGGLVQPGRSLKLPCAASGFTFSDYYMAWVRQAPTKGLEWVASISYDGSSTYYRDSVKGRFTISRDNAKSTLYLQMDSLRSEDTATYYCGRHSSYFDYWGQGVMVTVSSASTKGPSVFPLAPCSRSTSESTAALGCLVKDYFPEPVTVSWNSGALTSGVHTFPAVLQSSGLYSLSSVVTVPSSNFGTQTYTCNVDHKPSNTKVDKTVERKCCVECPPCPAPPVAGPSVFLFPPKPKDTLMISRTPEVTCVVVDVEHEDCEVQFNWYVDGVEVHNAKTKPREEQFNSTFRVVSVLTVVHQDWLNGKEYKCKVSNKGLPAPIEKTISKTKGQPREPQVYTLPPSREEMTKNQVSLTCLVKGFYPSDIAVEWESNGQPENNYKTTPPMLDSDGSFFLYSKLTVDKSRWQQGNVFSCSVMHEALHNHYTQKSLSLSPGKLEPPPSTVSNMATVAVLVVLGAAIVTGAVVAFVMKMRRRNTGGKGGDYALAPGSQTSDLSLPDCKVMVHDPHSLA
notes: as for B1
Increased factor 2 c Site 1 (combined/point mutation) (Biotin-FcγRIIB [8]): 61.2 | Enrichment factor (after/before sorting) (Biotin-FcγRIIB [5]): 1000 | Increased factor a (enrichment factor/wild-type enrichment factor) (Biotin-FcγRIIB [5]): 1740 | Increased factor 2 c Site 2 (combined/point mutation) (Biotin-FcγRIIB [6]): 58.4

B4: human IgG2 anti-mouse CD40 surface displayed antibody, Fc mutant V266A/P271C (antibody, name in EU numbering)
light chain (with the P2A rest): DTVLTQSPALAVSPGERVTISCRASDSVSTLMHWYQQKPGQQPKLLIYLASHLESGVPARFSGSGSGTDFTLTIDPVEADDTATYYCQQSWNDPWTFGGGTKLELKRTVAAPSVFIFPPSDEQLKSGTASVVCLLNNFYPREAKVQWKVDNALQSGNSQESVTEQDSKDSTYSLSSTLTLSKADYEKHKVYACEVTHQGLSSPVTKSFNRGECGSGATNFSLLKQAGDVEENPG
heavy chain: EVQLVESDGGLVQPGRSLKLPCAASGFTFSDYYMAWVRQAPTKGLEWVASISYDGSSTYYRDSVKGRFTISRDNAKSTLYLQMDSLRSEDTATYYCGRHSSYFDYWGQGVMVTVSSASTKGPSVFPLAPCSRSTSESTAALGCLVKDYFPEPVTVSWNSGALTSGVHTFPAVLQSSGLYSLSSVVTVPSSNFGTQTYTCNVDHKPSNTKVDKTVERKCCVECPPCPAPPVAGPSVFLFPPKPKDTLMISRTPEVTCVVVDASHEDCEVQFNWYVDGVEVHNAKTKPREEQFNSTFRVVSVLTVVHQDWLNGKEYKCKVSNKGLPAPIEKTISKTKGQPREPQVYTLPPSREEMTKNQVSLTCLVKGFYPSDIAVEWESNGQPENNYKTTPPMLDSDGSFFLYSKLTVDKSRWQQGNVFSCSVMHEALHNHYTQKSLSLSPGKLEPPPSTVSNMATVAVLVVLGAAIVTGAVVAFVMKMRRRNTGGKGGDYALAPGSQTSDLSLPDCKVMVHDPHSLA
notes: as for B1
Enrichment factor (after/before sorting) (Biotin-FcγRIIB [5]): 42.2 | Increased factor a (enrichment factor/wild-type enrichment factor) (Biotin-FcγRIIB [5]): 73.5 | Increased factor 2 c Site 2 (combined/point mutation) (Biotin-FcγRIIB [6]): 2.5

Results, then the molecule that gave them:

enrichment factor, percentage after 1st sorting/percentage before sorting (Biotin-FcγRIIB [7]): 80.5 ratio | enrichment factor, percentage after 2nd sorting/percentage after 1st sorting (Biotin-FcγRIIB [7]): 83.7 ratio | enrichment factor, percentage after 2nd sorting/percentage before sorting (Biotin-FcγRIIB [7]): 6730 ratio | increased factor, mutant enrichment factor/wild-type enrichment factor (Biotin-FcγRIIB [7]): 7970 ratio
B2: human IgG2 anti-mouse CD40 surface displayed antibody, S267E/H268S/E269D (antibody, name in EU numbering)
light chain (with the P2A rest): DTVLTQSPALAVSPGERVTISCRASDSVSTLMHWYQQKPGQQPKLLIYLASHLESGVPARFSGSGSGTDFTLTIDPVEADDTATYYCQQSWNDPWTFGGGTKLELKRTVAAPSVFIFPPSDEQLKSGTASVVCLLNNFYPREAKVQWKVDNALQSGNSQESVTEQDSKDSTYSLSSTLTLSKADYEKHKVYACEVTHQGLSSPVTKSFNRGECGSGATNFSLLKQAGDVEENPG
heavy chain: EVQLVESDGGLVQPGRSLKLPCAASGFTFSDYYMAWVRQAPTKGLEWVASISYDGSSTYYRDSVKGRFTISRDNAKSTLYLQMDSLRSEDTATYYCGRHSSYFDYWGQGVMVTVSSASTKGPSVFPLAPCSRSTSESTAALGCLVKDYFPEPVTVSWNSGALTSGVHTFPAVLQSSGLYSLSSVVTVPSSNFGTQTYTCNVDHKPSNTKVDKTVERKCCVECPPCPAPPVAGPSVFLFPPKPKDTLMISRTPEVTCVVVDVESDDPEVQFNWYVDGVEVHNAKTKPREEQFNSTFRVVSVLTVVHQDWLNGKEYKCKVSNKGLPAPIEKTISKTKGQPREPQVYTLPPSREEMTKNQVSLTCLVKGFYPSDIAVEWESNGQPENNYKTTPPMLDSDGSFFLYSKLTVDKSRWQQGNVFSCSVMHEALHNHYTQKSLSLSPGKLEPPPSTVSNMATVAVLVVLGAAIVTGAVVAFVMKMRRRNTGGKGGDYALAPGSQTSDLSLPDCKVMVHDPHSLA
notes: As m1 with the Fc mutations

Enrichment factor (after/before sorting) (Biotin-FcγRIIB [5]): 32.1 | Increased factor a (enrichment factor/wild-type enrichment factor) (Biotin-FcγRIIB [5]): 56 | Increased factor 2 c Site 2 (combined/point mutation) (Biotin-FcγRIIB [6]): 1.9
B5: human IgG2 anti-mouse CD40 surface displayed antibody, Fc mutant S267M/P271C (antibody, name in EU numbering)
light chain (with the P2A rest): DTVLTQSPALAVSPGERVTISCRASDSVSTLMHWYQQKPGQQPKLLIYLASHLESGVPARFSGSGSGTDFTLTIDPVEADDTATYYCQQSWNDPWTFGGGTKLELKRTVAAPSVFIFPPSDEQLKSGTASVVCLLNNFYPREAKVQWKVDNALQSGNSQESVTEQDSKDSTYSLSSTLTLSKADYEKHKVYACEVTHQGLSSPVTKSFNRGECGSGATNFSLLKQAGDVEENPG
heavy chain: EVQLVESDGGLVQPGRSLKLPCAASGFTFSDYYMAWVRQAPTKGLEWVASISYDGSSTYYRDSVKGRFTISRDNAKSTLYLQMDSLRSEDTATYYCGRHSSYFDYWGQGVMVTVSSASTKGPSVFPLAPCSRSTSESTAALGCLVKDYFPEPVTVSWNSGALTSGVHTFPAVLQSSGLYSLSSVVTVPSSNFGTQTYTCNVDHKPSNTKVDKTVERKCCVECPPCPAPPVAGPSVFLFPPKPKDTLMISRTPEVTCVVVDVMHEDCEVQFNWYVDGVEVHNAKTKPREEQFNSTFRVVSVLTVVHQDWLNGKEYKCKVSNKGLPAPIEKTISKTKGQPREPQVYTLPPSREEMTKNQVSLTCLVKGFYPSDIAVEWESNGQPENNYKTTPPMLDSDGSFFLYSKLTVDKSRWQQGNVFSCSVMHEALHNHYTQKSLSLSPGKLEPPPSTVSNMATVAVLVVLGAAIVTGAVVAFVMKMRRRNTGGKGGDYALAPGSQTSDLSLPDCKVMVHDPHSLA
notes: as for B1
